The text below walks through data of patent US20260055194A1 (LYCIA THERAPEUTICS, published 2026).

In assay [1] the target is human CI-M6PR on K562 cells (human, UniProt P11717 41-2491). In words: cell-based or functional assay.
In assay [2] the target is T1, purified recombinant CI-M6PR (domains 1-9) protein (human, UniProt P11717 41-1365, limits assumed).
T1 construct: domain: domains 1-9; also called human CI-M6PR; wild-type human CI-M6PR
In words: ELISA on human M6PR, Abs 450nm, antibody about 0.0005-1 ug/mL.

For assay [3], the target named is T2, Recombinant human M6PR ECD-His (human, UniProt P11717 41-2304).
T2 construct: extracellular domain; also called recombinant His-tagged human M6PR; human M6PR antigen; not shown: His tag
In words: Octet BLI; mIgG from hybridoma supernatant on anti-mouse biosensor, His-tagged human M6PR analyte.

The target of assay [4] is T1, purified recombinant CI-M6PR (domains …). In words: BLI (GatorPrime), antibody on anti-mouse IgG Fc sensor, CI-M6PR (domains 1-9) in solution, global 1:1 fit.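 Further: human CI-M6PR tested at a range of concentrations against captured antibodies, measured at 30 °C, analyte diluted in PBS carrying Tween-20, BSA and NaN3.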
Assay [5] has the same target. In words: ELISA on human M6PR, Abs 450nm, antibody about 0.0005-1 ug/mL. This is another data set of the same source.
The target is the same in assay [6]. Described as above. This is another data set of the same source.

Read-outs that look alike come from different tables or passages of the source.

B1: 06D1 (antibody, V domains shown)
VH: EVQLQQSGAELVRPGASVKLSCTASGFNIKDDYMHWVKQRPEQGLEWIGWIDPENGDTEYASKFQGKATITADTSSNTAYLQLSSLTSEDTAVYYCTTVAPGYYAMDYWGQGTSVTVSS
VL: ENVLTQSPAIMSASPGEKVTMTCRASSSVSSSYLHWYQQKSGASPKLWIYSTSNLASGVPARFSGSGSGTSYSLTISSVEAEDAATYYCQQYSGFTFGSGTKLEIK
notes: also called Clone # 11
For B1, the “Uptake pHrodo (MFI)” value in assay [1] came out at 22400 MFI. In assay [2], the 50% effective concentration (EC50 (read off the curve)) is roughly 0.01 mg/L. Moreover, the Kd in assay [3] worked out at 0.0171 µM. In assay [4], the equilibrium dissociation constant (Kd) is 0.0451 µM, the dissociation rate constant (koff) came to 0.0111 s⁻¹ and the kon was 245000 M⁻¹ s⁻¹.

B2: 06H10 (antibody, V domains shown)
VH: EVQLQQSGAELVRPGASVKLSCTASGFNIKDDYMHWVKQRPEQGLEWIGWIDPENGDTEYASKFQGKATITADTSSNTAYLQLSSLTSEDTAVYYCTTVAPYYYAMDYWGQGTSVTVSS
VL: QIVLTQSPAIMSASLGEEITLTCSASSSVSYMHWYQQKSGTSPKLLIYSTSNLASGVPSRFSGSGSGTFYSLTISSVEAEDAADYYCHQWSSYHTFGGGTKLEIK
For the molecule B2, in assay [1], the “Uptake pHrodo (MFI)” value was found to be 65800 MFI.

B3: 53B11 (antibody, V domains shown)
VH: EVQLQQSGPELVKPGTSMKISCKASGYSFTDYTVNWVKQSHGKNLEWIGLINPYNGGTSYNQKFKGKATLTVDKSSSTAYMELLSLTSEDSAVYYCARWGYYYATSYYFAMDYWGQGTSVTVSS
VL: DIQMNQSPSSLSASLGDTITITCHASQNINVWLSWYQQKPGNIPKLLIYKASNLHTGVPSRFSGSGSGTGFTLTISSLQPEDIATYYCQQGQSYPWTFGGGTKLEIK
notes: also called Clone # 33
As for B3, the “Uptake pHrodo (MFI)” value in assay [1] came to 9700 MFI. In addition, the Kd in assay [3] was found to be 0.00259 µM. In assay [4], the Kd is 0.00344 µM, the koff stood at 0.000445 s⁻¹ and the association rate constant (kon) worked out at 129000 M⁻¹ s⁻¹.

B4: 06F1 (antibody, V domains shown)
VH: EVQLQQSGAELVRPGASVKLSCTASGFNIKDDYMHWVKQRPEQGLEWIGWIDPENGDTEYASKFQGKATITADTSSNTAYLQLSSLTSEDTAVYYCTNYYGSSPFDYWGQGTTLTVSS
VL: QIVLTQSPAIMSAFLGERVTMTCTASSSVSSRYLHWYQQKPGSSPKLWIYSTSNLASGVPARFSGSGSGTSYSLTISSMEAEDAATYYCHQYHRSPLTFGAGTKLELK
notes: also called Clone # 67
For the molecule B4, in assay [1], the “Uptake pHrodo (MFI)” value was found to be 34200 MFI. For the same molecule, the Kd in assay [3] came to 0.0173 µM.

B5: 11B12 (antibody, V domains shown)
VH: QVQLQQSGPELVKPGASVKISCKASGYSFTSYYIHWVKQRPGQGLEWIGWIYPGSGNTKYNEKFKGKATLTADTSSSTAYMQLSSLTSEDSAVYYCARGNWHWYFDVWGTGTTVTVSS
VL: EIVLTQSPALMAASPGEKVTITCSVSSSISSSNLHWYQQKSETSPKPWIYGTSNLASGVPVRFSGSGSGTSYSLTISSMEAEDAATYYCQQWSSYPLTFGAGTKLELK
notes: also called Clone # 75
For the molecule B5, in assay [1], the “Uptake pHrodo (MFI)” value was found to be 43000 MFI. For the same molecule, the Kd in assay [3] came to 0.0906 µM. Also, in assay [4], the dissociation constant Kd was 0.237 µM, the koff was determined as 0.0112 s⁻¹ and the on-rate (kon) turned out to be 47400 M⁻¹ s⁻¹.

B6: 08D8 (antibody, V domains shown)
VH: QVQLQQPGAELVKPGASVKLSCKASGYTFTSYWMQWVKQRPGQGLEWIGEIDPSDSYTNYNQKFKGKATLTVDTSSSTAYMQLSSLTSEDSAVYYCARGDYYGSSSWFAYWGQGTLVTVSA
VL: DIVMTQAAPSVPVTPGESVSISCRSSKSLLHSNGNTYLYWFLQRPGQSPQLLIYRMSNLASGVPDRFSGSGSGTAFTLRISRVEAEDVGVYYCMQHLEYPFTFGAGTKLELK
notes: also called Clone # 84
Turning to B6, the “Uptake pHrodo (MFI)” value in assay [1] is 10900 MFI. Besides, the Kd in assay [3] is 0.259 µM. Further, in assay [4], the dissociation constant (Kd) came out at 0.351 µM, the koff came to 0.00185 s⁻¹ and the association rate constant (kon) stood at 5250 M⁻¹ s⁻¹.

B7: 16H4 (antibody, V domains shown)
VH: QVQLKQSGPGLVQPSQSLSITCTASGFSLTSYGVHWVRQSPGKGLEWLGVIWSGGSTDYSAAFISRLSISKDSSKSQVFFKMNSLQADDTAIYYCARNLPITSYDPSSFYAMDYWGQGTSVTVSS
VL: DIQMTQTTSSLSASLGDRVTISCSASQGISNYLNWYQQKPDGTVKLLIYYTSSLHSGVPSRFSGSGSGTDYSLTISNLEPEDIATYYCQQYSKLPFTFGSGTKLEIK
notes: also called Clone # 95
As for B7, the “Uptake pHrodo (MFI)” value in assay [1] came out at 13400 MFI. For the same molecule, the Kd in assay [3] is 0.615 µM.

B8: 06D12 (antibody, V domains shown)
VH: QVQLQQSGAELMKPGASVKLSCKATGYTFTGYWIEWVKQRPGHGLEWIGEILPGSGSTNYNEKFKGKATFTADTSSNTAYMQLSSLTTEDSAIYYCAYTVVATDWYFDVWGTGTTVTVSS
VL: ENVLTQSPAIMSASLGEKVTMSCRASSSVNYMYWYQQKSDASPKLWIYYTSNLAPGVPARFSGSGSGNSYSLTISSMEGEDAATYYCQQFTSSPWTFGGGTKLEIK
notes: also called Clone # 10
Consider B8, for which the “Uptake pHrodo (MFI)” value in assay [1] stood at 47000 MFI. Moreover, in assay [3], the dissociation constant Kd worked out at 0.00956 µM.

B9: 43C8 (antibody, V domains shown)
VH: EIQLQQSGPELVKPGASVKMSCKASGYTFTDYVISWVKQRTGQGLEWIGEIYPGSHTYYNEKFKGKATLTADKSSNTAYMQLSSLTSEDSAVYFCALTAGAMDYWGQGTSVTVSS
VL: NIMMTQSPSSLAVSAGEKVTMSCKSSQSVLYSSNQKNYLAWYQQKPGQSPKLLIYWASTRESGVPDRFTGSGSGTDFTLTISSVHAEDLAVYYCHQYLSSYTFGGGTKLEIK
notes: also called Clone # 28
As for B9, the “Uptake pHrodo (MFI)” value in assay [1] came out at 30800 MFI. Also, the “EC50 (read off the curve)” value in assay [5] is roughly 0.02 mg/L. Moreover, in assay [3], the equilibrium dissociation constant (Kd) turned out to be 0.00527 µM. In assay [4], the Kd was found to be 0.00633 µM, the dissociation rate constant (koff) was found to be 0.00104 s⁻¹ and the kon was 164000 M⁻¹ s⁻¹.

B10: 45A12 (antibody, V domains shown)
VH: QVQLQQSGAELMKPGASVKISCKATGYTFSTYWIEWVKQRPGHGLEWIGEILPGSGSTNYNEKFKGKATFTADASSNTAYMQLSSLTSEDSAVYYCARDGGAMDYWGQGTSVTVSS
VL: NIMMTQSPSSLAVSAGEKVTMSCKSSQRVLYSSNQKNYLAWYQQKPGQSPKLLIYWASTRESGVPDRFTGSGSGTDFTLTISTVQPEDLAVYYCHQYLSSRTFGGGTKLEIK
notes: also called Clone # 36
B10: the “Uptake pHrodo (MFI)” value in assay [1] worked out at 36000 MFI. Further, in assay [6], the 50% effective concentration (EC50 (read off the curve)) was roughly 0.01 mg/L. Moreover, the Kd in assay [3] was found to be 0.03 µM. Further, in assay [4], the dissociation constant (Kd) was 0.108 µM, the koff was 0.00872 s⁻¹ and the on-rate constant (kon) turned out to be 81000 M⁻¹ s⁻¹.

B11: 21D5 (antibody, V domains shown)
VH: QVQLKQSGPGLVQPSQSLSITCTVSGFSLTRYGVHWVRQSPGKGLEWLGVIWRGGSTDYNAAFMSRLSITKDNSKSQVFFKMNSLQADDTAIYYCAKEGTGILDSWGQGTTLTVSS
VL: DIVLTQSPASLAVSLGQRATISCRASKSVSTSGYSYMHWYQQKPGQPPTLLIYLASNLESGVPARFSGSGSGTDFTLNIHPVEEEDAATYYCQHSRELPYTFGGGTKLEIK
notes: also called Clone # 78
Regarding B11, in assay [1], the “Uptake pHrodo (MFI)” value came to 9980 MFI. Also, the concentration for a half-maximal effect (EC50 (read off the curve)) in assay [6] was roughly 0.02 mg/L. The dissociation constant Kd in assay [3] is 0.0431 µM. In addition, in assay [4], the Kd was 0.0622 µM, the koff stood at 0.000789 s⁻¹ and the on-rate constant (kon) was found to be 12700 M⁻¹ s⁻¹.
